# Publication PMC4278767
# What was measured:
# [1] = test system: T1, Fis (Pseudomonas putida (strain PaW85?)), ORF:eb421da7; experiment: EMSA; conditions: EMSA: 24 mM Tris/HCl pH 7.5, 50 mM KCl, 10 mM MgCl2, 1 mM CaCl2, 0.1 mM EDTA, 5% glycerol, 0.05 ug/ul BSA, 0.05 ug/ul salmon sperm DNA, 20 ul, 20 min room …
# T1 sequence: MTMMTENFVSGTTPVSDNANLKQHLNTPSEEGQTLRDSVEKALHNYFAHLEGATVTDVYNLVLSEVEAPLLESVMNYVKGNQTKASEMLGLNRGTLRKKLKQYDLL
# [2] = test system: T1, Fis (Pseudomonas putida (strain PaW85?)), ORF:eb421da7; experiment: DNase I footprinting; conditions: EMSA: 24 mM Tris/HCl pH 7.5, 50 mM KCl, 10 mM MgCl2, 1 mM CaCl2, 0.1 mM EDTA, 5% glycerol, 0.05 ug/ul BSA, 0.05 ug/ul salmon sperm DNA, 20 ul, 20 min room …
sequence,measurement,setting,value
CGTAACAGAGCCCTTTCAGGGGTCTTACGCACAGCCTCGACCAGGCAGTCGACAAACGGGTGGTTAGGGAGATATAGCAGCCGGTGGGGAAGCAACCAGATGGCTTTCTGGGTTAATCCTTTGGTAGAAAAGCCTCAGCGAAAGATCTA (double strand) [lapF promoter fragment with Fis-F2 (wild type)],binding,[1],binds
same,binding,[2],binds
